Biological target: recombinant Phl p 2 (Biomay AG) (UniProt P43214)
Test: flow cytometry scatter plot on 16HBE14o- cells pre-incubated with 1 µg of the conjugate at ratio 1:0.25, then 1 µg Phl p 2, rabbit anti-Phl p 2 (FIG. 3 C)

Chain of UniProt P43214 (P43214 27-122 limits assumed): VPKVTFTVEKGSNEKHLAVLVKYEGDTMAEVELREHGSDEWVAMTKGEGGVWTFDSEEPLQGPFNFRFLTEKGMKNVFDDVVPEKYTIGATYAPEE

Substance “P2/ICAM1 bi-specific antibody conjugate (streptavidin-conjugated Phl p 2-specific human IgG1 coupled to biotin-labeled ICAM1-specific mouse IgG1) (from UniProt P22629 37-163) (bispecific antibody)” has a percent of cells with Phl p 2 bound to their cell surface of 50%.
